# Results published in patent US20020082235A1.
# Target: Hoxc-8 (in the transfected C3H10T1/2 and 2T3 cells)
# Assay: cell-based or functional assay
row,"osteopontin promoter activity (OPN-266 luciferase reporter, C3H10T1/2 cells)",Substance
1,3 to 5 fold,Smad1-L (aa 145-276) fused with a nuclear localization signal
2,3 to 5 fold,Smad1-M (101-191) fused with a nuclear localization signal
3,3 to 5 fold,Smad1-NL (amino acids 3-276) fused with a nuclear localization signal
